The values that follow are results of earlier work, collected in US20090011987A1, “Use of Glp-2 for the Treatment of Ischemia-Reperfusion Injury” (Novo Nordisk A/S, priority 2005, published 2009).

The conditions of the series: adult human plasma.

In the case of “GLP-2(1-33) [wild type human GLP-2(1-33)]”, the half-life entry is listed as “lower than 2 hours”.
